Measurements from the RNAGym collection of RNA variant scans (doi:10.1073/pnas.2313332121).
This sample holds only a part of the variants without activity.

B1: TPR 5TU (parent)
chain: GGAUCUUCUCGAUCUAACAAAAAAGACAAAUCUGCCACAAAGCUUGAGAGCAUCUUCGGAUGCAGAGGCGGCAGCCUUCGGUGGCGCGAUAGCGCCAACGUUCUCAACUAUGACACGCAAAACGCGUGCUCCGUUGAAUGGAGUUUAUCAUG

Variants of: B1
Experiment: polymerase ribozyme fitness, log enrichment relative to wild type (log ratio); higher = more active; in vitro selection for triplet polymerase activity
Method in brief: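 Frozen incubation at −7 °C formed the core of a single, triplicate in vitro selection round applied to PCR-built, transcribed mutant libraries of each subunit of a heterodimeric triplet polymerase ribozyme. Extended constructs were gel-excised, captured with streptavidin beads and amplified by RT-PCR, and input and output libraries were Illumina-sequenced with a filter of ≥10 input reads and ≥1 read per output. Fitness is the logarithm of genotype enrichment relative to wild-type enrichment, with inverse-variance-weighted replicate averaging, and the logarithm is base 2.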

Variant	polymerase ribozyme fitness (log ratio)
GGAUCUUCUCGAUCUAACAAAAAAGACAAAUCUGCCACAAAGCUUGAGAGCAUCUUCGGAUGCAGAGGCGGCAGCCUUCGGUGGCACGAUAGCGCCAACGUUCUCAACUAUGACACGCAAAGCGCGUGCUCCGUUGAAUGGAGUUUAUCAUG	-1.11
GGAUCUUCUCGAUCUAACAAAAAAGACAAAUCUGCCACAAAGCUUGAGAGCAUCUUCGGAUGCAGAGGCGGCAGCCUUCGGUGGCCCGAUAGCGCUAACGUUCUCAACUAUGACACGCAAAACGCGUGCUCCGUUGAAUGGAGUUUAUCAUG	-2.67
GGAUCUUCUCGAUCUAACAAAAAAGACAAAUCUGCCACAAAGCUUGAGAGCAUCUUCGGAUGCAGAGGCGGCAGCCUUCGGUGGCACGAUAGCGCCAACGUUCUCAACUUUGACACGCAAAACGCGUGCUCCGUUGAAUGGAGUUUAUCAUG	≤ -4.2
GGAUCUUCUCGAUCUAACAAAAAAGACAAAUCUGCCACAAAGCUUGAGAGCAUCUUCGGAUGCAGAGGCGGCAGCCUUCGGUGGCACGAUAGCGCCAAGGUUCUCAACUAUGACACGCAAAACGCGUGCUCCGUUGAAUGGAGUUUAUCAUG	-3.06
GGAUCUUCUCGAUCUAACAAAAAAGACAAAUCUGCCACAAAGCUUGAGAGCAUCUUCGGAUGCAGAGGCGGCAGCCUUCGGUGGCCCGAUAGCGCCAACGUUCUCAACUAUGACACGCAAAACGCGUGCUUCGUUGAAUGGAGUUUAUCAUG	-2.55
GGAUCUUCUCGAUCUAACAAAAAAGACAAAUCUGCCACAAAGCUUGAGAGCAUCUUCGGAUGCAGAGGCGGCAGCCUUCGGUGGCACGAUAGCCCCAACGUUCUCAACUAUGACACGCAAAACGCGUGCUCUGUUGAAUGCAGUUUAUCAUG	≤ -4.2
GGAUCUUCUCGAUCUAACAAAAAAGACAAAUCUGCCACAAAGCUUGAGAGCAUCUUCGGAUGCAGAGGCGGCAGCCUUCGGUGGCACGAUAGCGCCAACGUGCUCAACUAUGACACGCAAAACGCGUGCUCCGUUGAAUGGAGUUUAUCAUG	-4.05
GGAUCUUCUCGAUCUAACAAAAAAGACAAAUCUGCCACAAAGCUUGAGAGCAUCUUCGGAUGCAGAGGCGGCAGCCUUCGGUGGCACGAAAGCGCCAACGUUCUCAACUAUGACACGCAAAACGCGUGCUCCGUUGAAUGGAGUUUAUCAUG	-3.67
GGAUCUUCUCGAUCUAACAAAAAAGACAAAUCUGCCACAAAGCUUGAGAGCAUCUUCGGAUGCAGAGGCGGCAGCCUUCGGUGGCACGAUAGCGCCAACGUUGUCAACUAUGACACGCAAAAUGCGUGCUCCGUUGAAUGGAGUUUAUCAUG	-3.36
GGAUCUUCUCGAUCUAACAAAAAAGACAAAUCUGCCACAAAGCUUGAGAGCAUCUUCGGAUGCAGAGGCGGCAGCCUUCGGUGGCACGAUAGCGCCAACGUUCUCAACUAUGACACGCAAAACGCGUGCUCCGUUGAAUGUAGUUUAUCAUG	-1.07
GGAUCUUCUCGAUCUAACAAAAAAGACAAAUCUGCCACAAAGCUUGAGAGCAUCUUCGGAUGCAGAGGCGGCAGCCUUCGGUGGCCCGAUAGCGCCAACGUUCUCAACUAUGACACGCAAAACGCGUGCUCCGUUAAAUGGAGUUUAUCAUG	-1.38
GGAUCUUCUCGAUCUAACAAAAAAGACAAAUCUGCCACAAAGCUUGAGAGCAUCUUCGGAUGCAGAGGCGGCAGCCUUCGGUGGCCCGAUAGCGCCAACGGUCUCAACUAUGACACGCAAAACGCGUGCUCCGUUGAAUGGAGUUUAUCAUG	-2.8
GGAUCUUCUCGAUCUAACAAAAAAGACAAAUCUGCCACAAAGCUUGAGAGCAUCUUCGGAUGCAGAGGCGGCAGCCUUCGGUGGCACGAUAGCGCCAACGUUCUCAACUAUGCCACGCAAAACGCGUGCUCCGUUGAAUGGAGUUUAUCAUG	-3.53
GGAUCUUCUCGAUCUAACAAAAAAGACAAAUCUGCCACAAAGCUUGAGAGCAUCUUCGGAUGCAGAGGCGGCAGCCUUCGGUGGCACGAUAGCGCCAACGUUCUCAACUAUGACACGCAAAACGCGUGCUCCGUUGAAUGGAUUUUAUCAUG	-3.07
GGAUCUUCUCGAUCUAACAAAAAAGACAAAUCUGCCACAAAGCUUGAGAGCAUCUUCGGAUGCAGAGGCGGCAGCCUUCGGUGGCACGAUAGCGCCAACGUUCUCAACUAUGACACGCAAAACGCGUGCUCCGUUGAAUGGAAUUUAUCAUG	-1.25
GGAUCUUCUCGAUCUAACAAAAAAGACAAAUCUGCCACAAAGCUUGAGAGCAUCUUCGGAUGCAGAGGCGGCAGCCUUCGGUGGCACGAUAGCGCCAACGUUCUCAACUAUGACACGCAAAACGCGUGCUCCGUUGAAUGGACUUUAUCAUG	-2.14
GGAUCUUCUCGAUCUAACAAAAAAGACAAAUCUGCCACAAAGCUUGAGAGCAUCUUCGGAUGCAGAGGCGGCAGCCUUCGGUGGCCCGAUAGCGCCAACGAUCGCACCUAUCACACGCAAAACGCGUGCUCCGUUGAAUGGAGUUUAUCAUG	≤ -4.2
GGAUCUUCUCGAUCUAACAAAAAAGACAAAUCUGCCACAAAGCUUGAGAGCAUCUUCGGAUGCAGAGGCGGCAGCCUUCGGUGGCACGAUAGCGCCAACGUUCUCAACUUUGACACGCAAAACGCGUGCUCCGUUGAGUGGAGUUUAUCAUG	≤ -4.2
GGAUCUUCUCGAUCUAACAAAAAAGACAAAUCUGCCACAAAGCUUGAGAGCAUCUUCGGAUGCAGAGGCGGCAGCCUUCGGUGGCACGAUAGCGCCAACGUUCUCAUCUAUGACACGCAAAACGCGUGCUCCGUUGAAUGGAGUUUAUCAUG	-3.39
